Data: article PMC6697640

Molecular target: 3X N-terminal FLAG-tagged PTEN (phosphatase and tensin homolog), wild type (UniProt P60484)
Assay: native gel or EMSA; co-IPs from total lysate of BT-549-PTEN cells followed by Western blot under non-denaturing conditions; dimers seen in the input lane and in the co-immunoprecipitate

3X N-terminal FLAG-tagged PTEN (phosphatase and tensin homolog), wild type, P60484 1-403 (enzyme; other documents disagree on this pair)
stoichiometry N: 2
